In patent publication US20260226095A1 (GLYTECH, published 2026):

B1: scFv Ab1 (D2B) of synthesis (scFv)
scFv: EVKLQESGPGLVKPSQSLSLTCSVTGYSITSGYYWNWIRQFPGNKLEWMGSISFDGNNNYNPSLRNRISITRDTSKNQFFLKLNSVTTEDTATYYCAREGDYYGSSFFTYWGQGTLVTVSSGGGGSGGGGSGGGGSALDIVMTQSPASLSASVGETVTLTCGASENIYGALNWYQRKQGKSPQLLIYGATNLADGMSSRFSGSGSGRQYSLKISSLHPDDVATYYCQNVFRTYTFGGGTKLEIKRAAAHHHHHH
modifications: L-pyroglutamic acid (<E) printed at position 1 of segment 1; two disulfide bonds (C22-C96 and C161-C226)
notes: Made by full chemical synthesis, 254 residues ending at H254; also called scFv Ab1 synthesis; scFv D2B
B2: scFv Ab1 RREF (scFv)
scFv: B1 scFv
notes: Produced in a prokaryotic system; Contains two tags (Myc and His); not shown: Myc tag present in RREF in addition to the His tag

Biological target: hPSMA (purified and soluble antigen) (human (printed as hPSMA), UniProt Q04609 44-750)
Assay: SPR, Biacore T200, standard kinetics, antigen immobilized on CM5 chip

Chain of hPSMA (purified and soluble antigen) (Q04609 44-750): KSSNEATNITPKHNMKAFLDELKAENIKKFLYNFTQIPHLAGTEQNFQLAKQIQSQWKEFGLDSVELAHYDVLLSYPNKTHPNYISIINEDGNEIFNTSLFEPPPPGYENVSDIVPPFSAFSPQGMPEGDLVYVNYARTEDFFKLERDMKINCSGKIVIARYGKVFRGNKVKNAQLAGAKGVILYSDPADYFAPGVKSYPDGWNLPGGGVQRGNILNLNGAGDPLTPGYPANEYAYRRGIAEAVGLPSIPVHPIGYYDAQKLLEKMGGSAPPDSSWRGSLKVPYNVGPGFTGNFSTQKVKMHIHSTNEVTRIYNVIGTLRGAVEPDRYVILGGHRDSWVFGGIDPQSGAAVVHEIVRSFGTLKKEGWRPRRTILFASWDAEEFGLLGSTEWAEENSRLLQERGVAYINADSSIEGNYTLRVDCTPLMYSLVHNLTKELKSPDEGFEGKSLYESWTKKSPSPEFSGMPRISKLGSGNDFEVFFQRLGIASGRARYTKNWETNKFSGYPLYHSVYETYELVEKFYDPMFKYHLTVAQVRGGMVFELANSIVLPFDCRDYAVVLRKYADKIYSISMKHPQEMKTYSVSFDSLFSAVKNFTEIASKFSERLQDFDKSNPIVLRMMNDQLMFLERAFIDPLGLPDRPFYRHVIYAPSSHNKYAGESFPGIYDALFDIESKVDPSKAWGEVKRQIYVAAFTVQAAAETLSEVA

Binder | Kd [nM]
B1 | 12
B2 | 27
